The series can be described thus: yeast display, Sf9 membrane polyspecificity reagent, FACS + sequencing; frameworks hold sequencing errors. The procedure, abridged:
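Galactose-induced (36–48 hours) yeast carrying a synthetic nanobody display library were exposed to 10% biotinylated, detergent-solubilized Sf9 membrane reagent at 4 °C for 1 hour. FACS followed streptavidin microbead enrichment, using low and high (top ~1%) gates for expression (anti-HA) and reagent binding (streptavidin). Colony PCR, MiSeq 2 × 250 sequencing and CDR-length filtering followed. Labels for polyreactivity reflect the gate of origin.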
Turning to “QDQVVESGGGVVQAGGSLRLICAAYGSTLRYYDMGWYRQAPGKERELVAAISRGCSTYYADSVKGRFTISRDNAKNTVYLLMNSLKPEETAVFYCNKEYPSSYEYDYWGQGTQVTVSS”, the “polyreactivity (PSR sort gate)” value was “low polyreactivity”.

Turning to “QEHLVESGGGLDQAGGRLRLSCAASGSIFAAYAMGWYRHAPGKERELVAAIKWTDGSTYYADSVKGRFTISRDIAMNTVYLQMNSLKPEDTAVYYCIRRQYGRKKQYDYWVQGTQVTVSS”, the “polyreactivity (PSR sort gate)” value is recorded as “high polyreactivity”.

As for “QEQHVESGGGLVQAGGSLRLSSAASVNIIGFYAKGWYREAPGKESEFVAAISFGTDRTYYADSVKGRFTISRENAKNTVYLQMNSLKPEDTALYYCNRRCNNGVRYGECDYWGQGTQVTVSS”, the “polyreactivity (PSR sort gate)” value is on record as “high polyreactivity”.

Turning to “QEQLQECGGGLVQAGGSLRLSCAASGNVFDADIMGWYRQAPGKERELVASVTDGGSTNYADSVKGRFTFSRDIAKNTVYLQMNSLKPEDTAVYYCAAIVYPDILTYFDYDYDYFYWGQGTQVTVGS”, the “polyreactivity (PSR sort gate)” value is listed as “low polyreactivity”.

Regarding “QEQLQERGGGLVQAGGSLRLSCAASGSIFKVVDMGLYRQAPAKEREFVATIGEGGNTYYADSVKGRFTISRDNAKNTVYLQMNSLKPEDTAVYFYAVVLGTYYRYTYWGQGTQVTVSS”, the “polyreactivity (PSR sort gate)” value was “low polyreactivity”.

For “QEQLQESCGGLVLAGGSLRLSCASSGSISAQAYMGWDRQAPGKEREHVAGINYGDNTNYADSVKGRFTISRDNEHRVSADEQPETGRYRGVLLRGFLELFYYYIYWGQGTQVTVSS”, the “polyreactivity (PSR sort gate)” value was “high polyreactivity”.

For the sequence “QEQLQESGGGLVKAGGSLRLSCAASGNISPRDAMGWYRQAPGEERDLVASNAYSAITYYADGVKGRYTISRDNAKNTVYVQMNSLKPEDTDVYYCEFYQFTYPVFPAYWGQGTQVTVSS”, the “polyreactivity (PSR sort gate)” value is recorded as “low polyreactivity”.

As to “QEQLQESGGGLVLAGGSLRLSCSASGNISVYGSMGWYRQAPGKELEFVATIDPGTNTNYADSVKDRFTISRDNAKNTVYLQMNSLKPEDRAVYYCAVEAGSDWPFRYWGQGTQVTVSS”, the “polyreactivity (PSR sort gate)” value was “low polyreactivity”.

For “QEQLQVSGGHLVQAGGSLRLSCAASGTIYGLTSMGWYRQAPGKEREFVAAITDGGNTNYADSVKGRFTISRDNAKKTVYLLMFCLKPEDTAVYYCAVLFSDDAYYAYWCQGTQVTVSS”, the “polyreactivity (PSR sort gate)” value is given as “low polyreactivity”.

For “QEQLVESGAGLVQAGGSLRLSCAASGSIFTLYGMGRYRQAPGKERELVAAITWSGGRTYYADSVKGRFTISRDNAKNTVYLQMNSLKPEDTAVYYCAAYRYVSWYYPDDYWGQGTQVTVSS”, the “polyreactivity (PSR sort gate)” value is on record as “high polyreactivity”.

Take “QEQLVESGGGLDQAGGSLRLSCAASGSTFSGYALAWYRQAPGKERELVAAISWRGVRTYYADSVKGRFSISRDNAKNRVYLQMNSLKPEDNAVYYCAAVGYITKEFYWGQGTKVTVSS”: the “polyreactivity (PSR sort gate)” value was “high polyreactivity”.

For the sequence “QEQLVESGGGLDQAGGSLRLSCAASGYTFVNYAMGWYRQAPGKERELVAAITSRGSSTYYADSVKGRFTISRDNAKNTVYLQMNSLKPEDTAVYYCAAYSSSLQGGYWGQGTQVTVSS”, the “polyreactivity (PSR sort gate)” value is “high polyreactivity”.

“QEQLVESGGGLVQAGGSLRLSCAASGFTFYFNAMGWYRQAPGKERELVAGITSDGITYYADSVKGRFTISRDNANNTVYLQMNSLKPEDTAVYYCAARKLEWDIKNDYCGQGTQVTVSS”: the “polyreactivity (PSR sort gate)” value is given as “low polyreactivity”.

Regarding “QEQLVESGGGLVQAGGSLRLTCAASGRTFFRYARGWYRQAPGKEREVVAAISSGGSTYYADTVKGRFTISRDNAKNTVYLQMNSLKPEDTAVYYCATRNYRLWPYVSVAYDYCGQGTQVTVSS”, the “polyreactivity (PSR sort gate)” value is reported as “high polyreactivity”.

Turning to “QEQQQESGGGLVQAGGSQRLSCAASGYIFYFQYMGWYRQAPGKEREFVAAISDGANTNYADSVKGRFTISRDNAINTEYLQMNSLKPEDTAVYYCAVYADENYYYIYWGQGTQVTVSS”, the “polyreactivity (PSR sort gate)” value is “low polyreactivity”.

“QFHLVESGGGLVHAGGSLRLSCAASGNIFPPNTMGWYRQAPGKATELVAVITWSDGGTYADSVKGRFTISRDNAKKTVYLQMNSLKPEDTAVYYCNADYYFAAPKGEYTAWYDYWGKGTQVTVSS”: the “polyreactivity (PSR sort gate)” value was “low polyreactivity”.

“QFHLVESGGGLVQAGGSLRLSCAASGRIFSEYAMGWYRQAHGKEMELVASISTSGGSTYYADSVKGRFTISRDNAKNTVYLQKYSLKPEDTEVYYCNVAYYRYPSYTYGYDHWGQGTQVTVSS”: the “polyreactivity (PSR sort gate)” value was “high polyreactivity”.

As to “QFHLVESGGGLVQAGGSLRLSCAAYGIIFYSYTMGWYRQAPGKERELVAAISRSGGSTYYADSVKGRFTISRDNAKNTVYLQMNSLKPEDTAVYYCAQVGNTAGYDYWGQGSQVTVSS”, the “polyreactivity (PSR sort gate)” value was “high polyreactivity”.

For the sequence “QFQIVDSLEGLVQEAGTLRLSSAASGSIFYRYAKGGYRQAPRKERELVATITSSGGRTYYADSVKGRFTISRDNAKNTVYLQMNSLKPEDTAVNYCKPRDWGRTRGGGYPWLYRYDYWGQGTQVTVSS”, the “polyreactivity (PSR sort gate)” value is “low polyreactivity”.

“QFQIVESGGGLVQAGGSLRLSCDASGSIFTWYAMGWYRQAPGKERELVAAITRGGSTYADSVKGRFTISRDNAKNSVYLQMNSLKPEDTAVYYCNAVYGVYDFNYWGQGTQVTVSP”: the “polyreactivity (PSR sort gate)” value is listed as “low polyreactivity”.

Take “QFQLEESGGGLVQAGGSLRLSCAASGSTFSSYVMGWYRQAPGKERELVAAISSIGGSTYYADSVKGRFTISRDNAKNTVYLQMNSLKPEDTAVYYCAAEPPGSTYEGGYLGQGTQVTVSS”: the “polyreactivity (PSR sort gate)” value is on record as “low polyreactivity”.

On to “QFQLVDSGGGLVHAGGSRSLSCADSGLIFHNNAMGWYRQAPGKEREFVARITRSGGTTYYADSVKGRFTISRDNAKNTVYLQMNSLKPEDTAVYYCAAEQSVSFLVFTGFKFDYWGQGTHVTVSS”, for which the “polyreactivity (PSR sort gate)” value is listed as “low polyreactivity”.

Take “QFQLVDSGGGLVQAGGSLRLSCAASGRTFWFYGMGWYRQAPGKEREFVARISGSGGSKYYADSVKGRFTITRDNAKNTVYFQMNSLKPEDTAVYYCAKDNRYPYPSGLDYWGQGTQVTVSS”: the “polyreactivity (PSR sort gate)” value was “high polyreactivity”.

For “QFQLVDSGRGLVQAGGSLRLSCAASGRTFPHYAMGWYRQAPGKERELVAAISSRGGSTYYADSVKGRFTISRDNVKNTVYLQMNSLKPEDTAVYYCAATVGLYRSREYGYWGQGTQVTVSS”, the “polyreactivity (PSR sort gate)” value was “low polyreactivity”.

For “QFQLVESGGGIVQAGGSLRIAVRPPDLPSTLNHLGWSRQAPGKERSVVAAITRGGSTNYADSVKGRFTISRDNAKNTVYLQMNSLKQEDTAVYYCAAPYAGWRDGGDYWGQGTQVTVSS”, the “polyreactivity (PSR sort gate)” value is “low polyreactivity”.

On to “QFQLVESGGGLVPARGSLRLSCAASGLIFKRNAMGWYRQAPGKERELDASNSGRGGSTYYADSLTGRFTISRDNAKKTVYLQMNSLKPEDTAVYFCAADGPPLGRPSYRLFYGYDYWGQGSQVTVSS”, for which the “polyreactivity (PSR sort gate)” value is given as “high polyreactivity”.

Regarding “QFQLVESGGGLVQAGASLRLSCASSLSTFDHNAMGSYRQAPGKESELVAAISSSGGRTYYADSVKGRFTISRDNAKNTVYLQMNSLKPEDTAVYYCAAVVRRAPEFDYSGQGTQVTVSS”, the “polyreactivity (PSR sort gate)” value is on record as “high polyreactivity”.

On to “QFQLVESGGGLVQAGGILRLSCAASGITFRIYAMGWYRQAPGKERELVAGISSSGSTNYADSVKGRFTISRESAKNTVYLQMNSLKPEDTAVYYCAADAFYKFDYWGQGTQVTESS”, for which the “polyreactivity (PSR sort gate)” value is “high polyreactivity”.

“QFQLVESGGGLVQAGGSHRLSCAASGRIVDYYAMGWYRQAPGKERDLVAAISTSGGSTYYADSVKGRFTISRDNAKITVYLLMNSLKPEDTAVYYCGKDITVTYPVLDYDYWGQCTQVTVSS”: the “polyreactivity (PSR sort gate)” value was “low polyreactivity”.

Turning to “QFQLVESGGGLVQAGGSLPLSCAASGSIFLWTAMGWYRQAPGKERELVAAITLRGGSTYYADSLKGRFTISRDNAKYAVYLQLNSLKPEDTAVFYCAADVFLLYDYWGQGTQVTVSS”, the “polyreactivity (PSR sort gate)” value is given as “low polyreactivity”.

Regarding “QFQLVESGGGLVQAGGSLRLICAASGIIFKLNAMGWYRQAPGIETELVAAITYRGGTTYYADSVKGRFTISRDNAKNTVYVQMNSLKPEDTAVYYCAVAVTSYSSKKLYYWGQGTQVTVSS”, the “polyreactivity (PSR sort gate)” value is listed as “low polyreactivity”.

“QFQLVESGGGLVQAGGSLRLSCAASARTFYRYAMGWYRQAPGKERELVASINRGGSTIYADSVKGRFSISRDNAKNTVYLHMNSLKPEDTAVFYCACYCYCYWGQGTQVTVSS”: the “polyreactivity (PSR sort gate)” value is “low polyreactivity”.

“QFQLVESGGGLVQAGGSLRLSCAASGFIFSNYAMGWYRQAPGKERELVASISWGGGSTYYADSVKGRFTISRDNAKNTVYLQMNSLKPEDTAVYYCATVRSLYSYDYWGQGTQVTVSS”: the “polyreactivity (PSR sort gate)” value is listed as “high polyreactivity”.

For the sequence “QFQLVESGGGLVQAGGSLRLSCAASGFTFVSNDMGWYRQAPGKVRELVAAISQGGGSTYYADSVKGRFTISRDNAKNTVYLQMNSLKPEDNAVYYCDAEDVYFGYDYSGQGTQVTVSS”, the “polyreactivity (PSR sort gate)” value is given as “low polyreactivity”.

With “QFQLVESGGGLVQAGGSLRLSCAASGFTITFYAKGWYRQAPGKERELVAAIRTSDGRTYYADSVKGRFTISRDNAKNTVYLQMNSLKPEDTAVYYCAAQVYRPRARYYEYDYWGQGTQVTVSS”, the “polyreactivity (PSR sort gate)” value is listed as “high polyreactivity”.

For “QFQLVESGGGLVQAGGSLRLSCAASGFTIYIYAKGWYRQAPGKERELVAAINFRGGSTYYADSVKGRFTISGDNAKKTVYLQLNSLKPEDTAVYYCAAVPRTYSGYYYWGQGTQVSVSS”, the “polyreactivity (PSR sort gate)” value was “high polyreactivity”.

As for “QFQLVESGGGLVQAGGSLRLSCAASGIIDGNARGWYRQAPGKEREFVATISVNDGNTYYADSVKGRFTISRDNAKNTVYLQMNSLKPEDTAVSYCATPTVYVPIPDLGDYWGQGTQVTVSS”, the “polyreactivity (PSR sort gate)” value is reported as “low polyreactivity”.

Consider “QFQLVESGGGLVQAGGSLRLSCAASGIIFDYNAMGWYRQAPGKERELVAAITRGGSTYYADSVNGRFTISRDNAKNTVYVQMTSLKPEDTAVYYCKAVLPVHWSWYDYWGQGTQVTVSS”, for which the “polyreactivity (PSR sort gate)” value is “low polyreactivity”.

Consider “QFQLVESGGGLVQAGGSLRLSCAASGIIFNRNVMRWYRQAPAKERELVAAITWGGGRTYYADSVKGRFTISRDNAKNTVYLQMNSLIPVDTAVYFCAARSRGSSRFDYWGQGTQVTVSS”, for which the “polyreactivity (PSR sort gate)” value is “high polyreactivity”.

As to “QFQLVESGGGLVQAGGSLRLSCAASGIIFRYYGMGWYRQAPGKERELVARILWTGGSTYYADSVKGRFTISRDNAKNTVYFQMNSLKPEDTAVYYSAADIWQYSRIANYHPYEYWGQGTQVTVSS”, the “polyreactivity (PSR sort gate)” value was “low polyreactivity”.

Regarding “QFQLVESGGGLVQAGGSLRLSCAASGITFVDNAMGWYRQAPGKERELVAAITNSGSTYADSVKGRFTISRDNAKNTVYVQMNSLKPEDTAVYYCAADYYILLTKSDRLFGSWGQGTQVTVSS”, the “polyreactivity (PSR sort gate)” value is on record as “low polyreactivity”.

For the origin of these results see the nanobody polyreactivity screen of Harvey et al. (2022).
